What was measured:
2N4 R tau [1] = target: T1, 2N4 R tau (human, UniProt P10636 2-758); test: ELISA, antibody titrated about 3 to 10000 ng/ml on tau isoform coated directly onto the plate, OD 630 nm
T1 construct: also called largest human isoform of tau

0N3 R tau [2] = target: T2, 0N3 R tau (human, UniProt P10636-2 1-352); test: flow cytometry, antibody titrated about 3 to 10000 ng/ml on cells with intracellularly expressed tau isoform, geomean AF647 of transfected cells
T2 construct: Used as recombinant protein (ELISA), overexpressed in cells (flow cytometry, Western blot, immunofluorescence) and native in iPSC derived neurons; also called 3 R tau (iPSC derived neurons express 0N3 R tau)

1N3 R tau [3] = target: T3, 1N3 R tau (human, UniProt P10636-4 1-381); test: as above
T3 construct: One of the six recombinantly expressed tau isoforms

2N3 R tau [4] = target: T4, 2N3 R tau (human, UniProt P10636-5 1-410); test: as above
T4 construct: One of the six recombinantly expressed tau isoforms

1N4 R tau [5] = target: T5, 1N4 R tau (human, UniProt P10636-7 1-412); test: as above
T5 construct: One of the six recombinantly expressed tau isoforms

1N4 R tau [6] = target: T5, 1N4 R tau; test: Western blot of lysates of cells overexpressing a single tau isoform, probed with the mouse IgG format
2N4 R tau [7] = target: T1, 2N4 R tau; test: as above
0N3 R tau [8] = target: T2, 0N3 R tau; test: ELISA, scFv-Ms-Fc titrated about 3 to 10000 ng/ml on coated tau isoform, OD 630 nm
1N3 R tau [9] = target: T3, 1N3 R tau; test: as above
2N3 R tau [10] = target: T4, 2N3 R tau; test: as above
0N4 R tau = target: T6, 0N4 R tau (human, UniProt P10636-6 1-383); test: flow cytometry, scFv-Ms-Fc titrated about 3 to 10000 ng/ml on cells transfected with the tau isoform, mean fluorescence of transfected cells
T6 construct: Used as recombinant protein (ELISA), overexpressed in cells and native in 10+16 MAPT mutant iPSC derived neurons; also called unmutated 0N4 R tau; 4 R tau (10+16 MAPT mutant neurons express 0N4 R tau)

1N4 R tau [11] = target: T5, 1N4 R tau; test: as above
2N4 R tau [12] = target: T1, 2N4 R tau; test: as above
[13] = target: T7, 0N4 R tau P301 mutated to alanine (human, UniProt P10636 1-758); test: flow cytometry on fixed, permeabilised Expi293 cells expressing the mutant, 10 µg/ml VR7082
T7 construct: also called P301A
Method: (§1) Upon receipt of the constructs, single constructs were transiently transfected into Expi293 cells (Thermo-Fisher) according to the instructions from the manufacturer. The cells were incubated at 38° C., shaking at 220 RPM, in a humidified 5% CO2 environment. Following a 48 hour incubation, the cells were harvested via centrifugation at 350 G(av) for 10 minutes. The cells were fixed and permeabilized with Invitrogens Fix and Perm kit, according to the instructions from the manufacturers. […] The cells were incubated on ice for 30 minutes before being washed in PBS+1% BSA and resuspended in 50 μl/well.
(§2) The cells were run on an IQue3 and tau containing cells were gated via the alexa-488 fluorescence from HT7 and tau binding assessed via alexa-647 staining. The data was normalised and expressed as a percentage of the binding signal observed for not-mutated tau.

[14] = target: T8, 0N4 R tau G302 mutated to alanine (human, UniProt P10636 1-758); test: as above
T8 construct: also called G302A
Method: as §1, §2

0N3 R tau [15] = target: T2, 0N3 R tau; test: ELISA, antibody titrated about 3 to 10000 ng/ml on tau isoform coated directly onto the plate, OD 630 nm
1N3 R tau [16] = target: T3, 1N3 R tau; test: as above
2N3 R tau [17] = target: T4, 2N3 R tau; test: as above
1N4 R tau [18] = target: T5, 1N4 R tau; test: as above
2N4 R tau [19] = target: T1, 2N4 R tau; test: as above; remark: listed apart in the source
0N3 R tau [20] = target: T2, 0N3 R tau; test: Western blot of lysates of cells overexpressing a single tau isoform, probed with the mouse IgG format
1N3 R tau [21] = target: T3, 1N3 R tau; test: as above
2N3 R tau [22] = target: T4, 2N3 R tau; test: as above
1N4 R tau [23] = target: T5, 1N4 R tau; test: as above; remark: listed apart in the source
2N4 R tau [24] = target: T1, 2N4 R tau; test: as above; remark: listed apart in the source

T1 sequence (P10636 other isoform, or with tags, fused parts or gaps limits assumed): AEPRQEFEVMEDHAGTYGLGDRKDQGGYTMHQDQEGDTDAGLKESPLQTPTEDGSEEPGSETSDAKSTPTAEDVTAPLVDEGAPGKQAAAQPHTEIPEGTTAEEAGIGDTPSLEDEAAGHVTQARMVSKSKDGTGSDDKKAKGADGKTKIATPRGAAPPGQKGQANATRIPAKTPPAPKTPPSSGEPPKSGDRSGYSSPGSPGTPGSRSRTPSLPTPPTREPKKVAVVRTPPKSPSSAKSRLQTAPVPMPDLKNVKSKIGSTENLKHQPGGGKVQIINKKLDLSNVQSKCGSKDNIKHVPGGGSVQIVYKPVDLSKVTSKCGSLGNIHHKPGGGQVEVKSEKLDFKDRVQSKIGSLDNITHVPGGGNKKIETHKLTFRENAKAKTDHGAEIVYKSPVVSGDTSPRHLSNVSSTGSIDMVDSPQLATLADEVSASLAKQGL
T3 sequence (P10636 other isoform, or with tags, fused parts or gaps limits assumed): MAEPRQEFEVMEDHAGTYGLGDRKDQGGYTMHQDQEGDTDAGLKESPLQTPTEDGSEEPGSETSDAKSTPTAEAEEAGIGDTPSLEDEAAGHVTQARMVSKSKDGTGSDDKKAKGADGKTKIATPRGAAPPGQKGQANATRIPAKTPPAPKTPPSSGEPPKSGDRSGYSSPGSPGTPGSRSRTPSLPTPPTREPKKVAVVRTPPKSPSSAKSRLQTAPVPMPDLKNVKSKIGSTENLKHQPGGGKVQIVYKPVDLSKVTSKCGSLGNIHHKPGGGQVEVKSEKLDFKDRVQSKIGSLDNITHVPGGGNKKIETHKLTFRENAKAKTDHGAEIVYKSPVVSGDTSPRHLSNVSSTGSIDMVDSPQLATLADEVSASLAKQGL
T5 sequence (P10636 other isoform, or with tags, fused parts or gaps limits assumed): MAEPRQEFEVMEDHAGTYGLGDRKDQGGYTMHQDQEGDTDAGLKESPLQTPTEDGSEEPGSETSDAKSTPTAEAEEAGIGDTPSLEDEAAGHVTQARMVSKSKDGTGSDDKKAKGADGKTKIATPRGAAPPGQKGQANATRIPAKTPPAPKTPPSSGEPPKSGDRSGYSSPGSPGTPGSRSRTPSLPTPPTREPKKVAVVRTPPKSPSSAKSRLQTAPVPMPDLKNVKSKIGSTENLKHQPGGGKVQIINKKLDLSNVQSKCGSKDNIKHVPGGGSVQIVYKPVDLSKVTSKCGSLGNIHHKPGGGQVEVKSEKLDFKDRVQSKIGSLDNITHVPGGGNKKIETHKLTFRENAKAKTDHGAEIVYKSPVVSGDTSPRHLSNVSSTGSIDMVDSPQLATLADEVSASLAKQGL
T2 sequence (P10636 other isoform, or with tags, fused parts or gaps limits assumed): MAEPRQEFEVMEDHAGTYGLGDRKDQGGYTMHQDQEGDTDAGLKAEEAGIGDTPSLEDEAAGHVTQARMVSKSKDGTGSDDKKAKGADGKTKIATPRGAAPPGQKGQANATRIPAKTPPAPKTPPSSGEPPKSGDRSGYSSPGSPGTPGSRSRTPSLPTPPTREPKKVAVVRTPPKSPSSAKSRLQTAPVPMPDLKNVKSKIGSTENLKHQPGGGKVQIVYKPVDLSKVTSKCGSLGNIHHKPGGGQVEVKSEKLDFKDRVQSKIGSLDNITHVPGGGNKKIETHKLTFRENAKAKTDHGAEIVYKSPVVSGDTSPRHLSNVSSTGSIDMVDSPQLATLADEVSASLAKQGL
T4 sequence (P10636 other isoform, or with tags, fused parts or gaps limits assumed): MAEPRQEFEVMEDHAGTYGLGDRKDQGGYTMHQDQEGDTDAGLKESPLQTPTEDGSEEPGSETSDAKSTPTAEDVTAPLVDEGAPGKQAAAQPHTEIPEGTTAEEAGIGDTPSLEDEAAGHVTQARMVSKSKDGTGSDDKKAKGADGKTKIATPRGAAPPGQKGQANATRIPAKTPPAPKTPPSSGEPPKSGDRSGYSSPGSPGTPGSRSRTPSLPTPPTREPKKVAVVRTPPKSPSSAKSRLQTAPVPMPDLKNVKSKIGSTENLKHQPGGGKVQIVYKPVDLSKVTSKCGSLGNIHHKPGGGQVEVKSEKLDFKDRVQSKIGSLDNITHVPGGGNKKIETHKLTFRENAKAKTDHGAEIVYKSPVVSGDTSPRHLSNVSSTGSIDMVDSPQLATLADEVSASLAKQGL
T7 sequence (P10636 other isoform, or with tags, fused parts or gaps limits assumed, stated change not applied): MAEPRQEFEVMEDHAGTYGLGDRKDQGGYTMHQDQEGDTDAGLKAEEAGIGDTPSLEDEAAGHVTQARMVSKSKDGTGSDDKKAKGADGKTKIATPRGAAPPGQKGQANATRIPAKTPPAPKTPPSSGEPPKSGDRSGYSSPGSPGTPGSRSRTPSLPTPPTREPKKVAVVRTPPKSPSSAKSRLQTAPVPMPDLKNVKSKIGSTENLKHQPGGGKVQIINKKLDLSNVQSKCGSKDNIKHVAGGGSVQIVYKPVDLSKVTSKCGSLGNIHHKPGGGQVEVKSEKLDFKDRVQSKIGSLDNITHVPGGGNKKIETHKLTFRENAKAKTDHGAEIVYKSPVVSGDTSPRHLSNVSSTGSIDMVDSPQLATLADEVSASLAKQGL
T6 sequence (P10636 other isoform, or with tags, fused parts or gaps limits assumed, form in doubt): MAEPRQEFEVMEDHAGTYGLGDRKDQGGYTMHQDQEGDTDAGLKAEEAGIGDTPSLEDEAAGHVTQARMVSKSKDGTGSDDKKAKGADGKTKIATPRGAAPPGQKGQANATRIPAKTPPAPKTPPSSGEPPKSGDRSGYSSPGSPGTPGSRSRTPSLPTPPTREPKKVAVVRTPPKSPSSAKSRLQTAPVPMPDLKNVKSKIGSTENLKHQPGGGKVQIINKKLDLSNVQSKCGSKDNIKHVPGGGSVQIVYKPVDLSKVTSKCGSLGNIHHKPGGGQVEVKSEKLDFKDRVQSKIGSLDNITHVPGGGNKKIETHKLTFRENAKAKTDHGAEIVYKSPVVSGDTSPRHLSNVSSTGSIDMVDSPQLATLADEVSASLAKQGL
T8 sequence (P10636 other isoform, or with tags, fused parts or gaps limits assumed, stated change not applied): as the sequence (P10636 other isoform, or with tags, fused parts or gaps limits assumed, form in doubt) above, with G244A counted along it

B1: VR7081 rabbit IgG (antibody, V domains shown)
VH: QSLEESGGRLVTPGTPLTLTCTVSGFSLSNYAMIWVRQAPGGGLEWIGTMGTNGRTYYASWAKGRFTISKTSTTMDLSMTSLTAEDTATYFCARDAGITYSTYYFNIWGPGTLVTVSS
VL: AQVLTQTPASVSAAVGGTVSISCQSSPSVLNTNDLSWFQQKPGQPPKVLIYGASTLASGVPSRFKGSGSGTQFTLTISDVQCDDAATYYCAGGYDVNIDIYGFGGGTEVVVK
notes: Cloned and tested as full-length rabbit IgG (kappa light chain); also called clone 14; 3 R-specific antibody
binding result (2N4 R tau [1]): no binding (tested: 10000 ng/ml)
EC50 (read off the curve) (0N3 R tau [2]): ~0.7 µg/mL
EC50 (read off the curve) (1N3 R tau [3]): ~1 µg/mL
EC50 (read off the curve) (2N3 R tau [4]): ~0.9 µg/mL
binding result (1N4 R tau [5]): no binding (tested: 10000 ng/ml)

B2: VR7081 formatted as Mouse IgG (antibody, V domains shown)
VH: QSLEESGGRLVTPGTPLTLTCTVSGFSLSNYAMIWVRQAPGGGLEWIGTMGTNGRTYYASWAKGRFTISKTSTTMDLSMTSLTAEDTATYFCARDAGITYSTYYFNIWGPGTLVTVSS
VL: AQVLTQTPASVSAAVGGTVSISCQSSPSVLNTNDLSWFQQKPGQPPKVLIYGASTLASGVPSRFKGSGSGTQFTLTISDVQCDDAATYYCAGGYDVNIDIYGFGGGTEVVVK
notes: also called VR7081 mouse chimeric antibody
binding result (1N4 R tau [6]): no binding
binding result (2N4 R tau [7]): no binding

B3: VR7082 scFv-Ms-Fc (Fc fusion)
scFv: MAQSVEESGGRLVTPGTPLTLTCTVSGIDLSNYAMIWVRQAPGEGLEYIGIISSTGNTFYATWAKGRFTISKTSTTVDLKITSPTAEDTATYFCARDTNSDSHYGWEAFNIWGPGTLVTVSSGGGGSGGGGSGGGGSGGGGSAVVLTQTPASVEAAVGGTVSINCQASEDIESYLAWYQQKPGQRPKLLIYRASTLASGVSSRFKGSGSGTEYTLTISGVECADAATYYCQEGYSIHVDNVFGGGTEVVVK
notes: also called scFv mouse Fc conversion of VR7082; not shown: mouse Fc
binding result (0N3 R tau [8]): no binding (tested: 10000 ng/ml)
binding result (1N3 R tau [9]): no binding (tested: 10000 ng/ml)
binding result (2N3 R tau [10]): no binding (tested: 10000 ng/ml)
EC50 (read off the curve) (0N4 R tau): ~0.6 µg/mL
EC50 (read off the curve) (1N4 R tau [11]): ~0.8 µg/mL
EC50 (read off the curve) (2N4 R tau [12]): ~0.9 µg/mL

B4: VR7082 rabbit IgG (antibody, V domains shown)
VH: QSVEESGGRLVTPGTPLTLTCTVSGIDLSNYAMIWVRQAPGEGLEYIGIISSTGNTFYATWAKGRFTISKTSTTVDLKITSPTAEDTATYFCARDTNSDSHYGWEAFNIWGPGTLVTVSS
VL: AVVLTQTPASVEAAVGGTVSINCQASEDIESYLAWYQQKPGQRPKLLIYRASTLASGVSSRFKGSGSGTEYTLTISGVECADAATYYCQEGYSIHVDNVFGGGTEVVVK
notes: Cloned and tested as full-length rabbit IgG (kappa light chain); also called clone 3; VR7082-RbIgG
binding result [13]: binds
binding result [14]: binds
binding result (0N3 R tau [15]): no binding (tested: 10000 ng/ml)
binding result (1N3 R tau [16]): no binding (tested: 10000 ng/ml)
binding result (2N3 R tau [17]): no binding (tested: 10000 ng/ml)
binding result (1N4 R tau [18]): binds
binding result (2N4 R tau [19]): binds

B5: VR7082 formatted as Mouse IgG (antibody, V domains shown)
VH: QSVEESGGRLVTPGTPLTLTCTVSGIDLSNYAMIWVRQAPGEGLEYIGIISSTGNTFYATWAKGRFTISKTSTTVDLKITSPTAEDTATYFCARDTNSDSHYGWEAFNIWGPGTLVTVSS
VL: AVVLTQTPASVEAAVGGTVSINCQASEDIESYLAWYQQKPGQRPKLLIYRASTLASGVSSRFKGSGSGTEYTLTISGVECADAATYYCQEGYSIHVDNVFGGGTEVVVK
notes: also called VR7082 mouse chimeric antibody
binding result (0N3 R tau [20]): no binding
binding result (1N3 R tau [21]): no binding
binding result (2N3 R tau [22]): no binding
binding result (1N4 R tau [23]): binds
binding result (2N4 R tau [24]): binds

Source: patent publication US20240409624A1 (UCB, published 2024)
